In PMC13458692:

Molecular target: Biotinylated MR1-β2m-5-OP-RU (UniProt Q95460)
Experiment: SPR

Kd: 1920 nM
Substance: A-F7 (TRAV1-2/TRBV6-1) adult MAIT TCR, soluble
